3 substances from patent US6156555 can be followed below.

In test [1] the target is phenylalanyl-glycyl-phenylalanyl-glycine.
Test [2] addresses phenylalanyl-glycyl-phenylalanyl-hydroxylglycine.

Take “enzyme expressed by plasmid SV-b (rat; signal sequence + C-terminal domain) (from UniProt P14925)”: in test [1], the Enzyme activity n mole/h/ml medium; substrate PheGlyPheGly, product PheGlyPhe-hydroxyGly came to 0.4 nmol/h/mL. Also, in test [2], the Enzyme activity n mole/h/ml medium; substrate PheGlyPhehydroxyGly, product PheGlyPhe-NH2 + glyoxylic acid turned out to be 10.8 nmol/h/mL.

In turn, “enzyme expressed by plasmid SV-a (rat; signal sequence + N-terminal domain) (from UniProt P14925)” had an Enzyme activity n mole/h/ml medium; substrate PheGlyPheGly, product PheGlyPhe-hydroxyGly in test [1] of 2.8 nmol/h/mL. Besides, the Enzyme activity n mole/h/ml medium; substrate PheGlyPhehydroxyGly, product PheGlyPhe-NH2 + glyoxylic acid in test [2] was less than 2 nmol/h/mL.

In test [1], “enzymes expressed by plasmid SV-203 (rat; signal sequence + N-terminal domain + C-terminal domain) (from UniProt P14925)” displayed an Enzyme activity n mole/h/ml medium; substrate PheGlyPheGly, product PheGlyPhe-hydroxyGly of 2.5 nmol/h/mL. In test [2], the Enzyme activity n mole/h/ml medium; substrate PheGlyPhehydroxyGly, product PheGlyPhe-NH2 + glyoxylic acid was 4.2 nmol/h/mL.
